In article PMC8537947, “Improved Radiolytic Stability of a ^68Ga-labelled Collagelin Analogue for the Imaging of Fibrosis” (Pharmaceuticals, 2021):
Bridge positions count the residues as written; N and C are the ends. Square brackets hold non-standard residues; d marks the D form. Peptide text beside a SMILES is read from it. * marks the point of attachment. NOTA = O=C(O)CN1CCN(CC(=O)O)CCN(CC(=O)*)CC1; Nle = CCCC[C@H](N)C(=O)O; AEEA = NCCOCCOCC(=O)O

Columns and labels:
[1] = design: species or system human
Excerpt: The rat SUVs were translated into a percentage of injected activity (%IA, Equation (3)) for human organs according to Equation (3) (Table S3), where SUVA is the SUVs of the rat organs; gorgan and kgTBweight are, respectively, standard organ weight and standard total body weight of a human. The standard organ masses and total-body weight values were obtained from the OLINDA software (organ level internal dose assessment code, Vanderbilt University, USA, 2007). (3) %IAOrganhuman=SUVA∗gorgan/kgTBweighthuman The %IA values were decay corrected to the animal termination time point at 5, 10, 30, 40, 60, and 120 min post administration and plotted as a function of time. The area under the curve for each organ was integrated using the trapezoid method assuming a simple exponential decay to eternity after the last point. The derived time-integrated activity coefficient (TIAC) for each organ, which is equal to the number of disintegrations (MBq-h/MBq) and dose rate S-values extracted from the Medical Internal […] (MIRD) pamphlet, was used for the computation of organ and whole-body effective doses (mSv/MBq) in humans in the OLINDA/EXM software package (Version 1.1, Vanderbilt University).

[2] = in vivo; details: female, BALB/c, mouse, iv, total radioactivity
Description: The animals (BALB/c female mice, n = 6) were administered with carbon tetrachloride (CCl4) formulated in a corn oil solution (20%, 0.5 mg per gram of body weight) into the lower side of the abdomen three times a week for three weeks. The wellbeing of the animals was monitored for 30 min after the injection and once per day afterwards. The development of liver fibrosis was confirmed by post-mortem Sirius Red staining of the PFA liver biopsies.
Healthy mice (n = 4, 19.6 ± 1.0 g) and mice with CCl4 induced liver fibrosis (n = 5, 21.55 ± 1.12 g) were intravenously administered with [^68Ga]Ga-NO2A-[Nle^13]-Col (5.2 ± 2.1 MBq, 0.31 ± 0.09 ug and 6.1 ± 2.1 MBq, 0.35 ± 0.08 ug) and the tracer organ distribution was studied after a 60 min incubation ex vivo (Table S1). The weight of the excised organs of interest (blood, heart, lung, liver, pancreas, spleen, kidney, intestines, muscle, brain) was noted and the radioactivity was measured using an automated gamma counter (2480 Wizard2^TM, PerkinElmer, Waltham, MA, USA) with a correction for dead-time and radioactivity decay.

CCCC[C@@H]1NC(=O)[C@H](C(C)C)NC(=O)[C@H](CCCNC(=N)N)NC(=O)CNC(=O)[C@@H]2CCCN2C(=O)[C@@H](NC(=O)COCCOCCNC(=O)CN2CCN(CC(=O)O)CCN(CC(=O)O)CC2)CSSC[C@@H](C(=O)O)NC(=O)[C@@H]2CCCN2C(=O)CNC(=O)[C@H](CCC(=O)O)NC(=O)[C@H](CC(=O)O)NC(=O)[C@H](CC(=O)O)NC(=O)CNC(=O)[C@H](CC(C)C)NC(=O)[C@H](Cc2c[nH]cn2)NC(=O)[C@H](CC(C)C)NC(=O)CNC(=O)[C@H](Cc2c[nH]cn2)NC1=O [[^68Ga]Ga-NO2A-[Nle^13]-Col, [^68Ga]Ga-NOTA-PEG2-c[CPGRVNleHGLHLGDDEGPC], metal not drawn] ({NOTA-AEEA}-CPGRV[Nle]HGLHLGDDEGPC-OH; disulfide 1-18)
PET/CT examinations per year [1]: 4-5 | administration per year allowed by bone marrow absorbed dose [1]: 8000-10,000 MBq per year | dose of all organs other than kidney [1]: lower than 0.02 mSv/MBq | dose of the remaining organs [1]: less than 0.009 mSv/MBq | estimated absorbed dose, spleen [1]: 0.003 mGy/MBq | SUV at 1 h ([2]; 5.2 MBq, SUV lungs (LU)): 0.0679 SUV | SUV at 1 h ([2]; 6.1 MBq, SUV kidneys (KI)): 2.12 SUV
